± gives the half width of the 95% confidence interval.
Legend:
[1] = folding stability dG unfold (combined trypsin and chymotrypsin); higher = more stable
Procedure, shortened: (§1)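 Designed mini-proteins (under 80 residues, no cysteine) in a PA-tagged cDNA display construct were digested with trypsin and chymotrypsin. Each protease was used at 11 concentrations (threefold dilutions) plus a no-protease condition, followed by sequencing. K50 was inferred by Bayesian fitting of sequencing counts, and unfolding free energy was derived against a sequence-predicted unfolded-state K50 and a shared folded-state K50, per protease or combined. Only designs with AlphaFold2 dimer inter-PAE above 15 were kept.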

[2] = folding stability dG unfold from chymotrypsin proteolysis; higher = more stable
Procedure, shortened: as §1

[3] = folding stability dG unfold from trypsin proteolysis; higher = more stable
Procedure, shortened: as §1

Sequence	folding stability dG unfold [1]	folding stability dG unfold [2]	folding stability dG unfold [3]
SAGGSAGGSAGMKIEKNKDGKLRIIIYNKNGKKVKEIEMSVEEAKKLAEKNNFEIVKIEPSAGGSAGGSAGG [r11_521_TrROS_Hall]	1.09 ± 0.21 kcal/mol	0.966 ± 0.41 kcal/mol	1.02 ± 0.093 kcal/mol
SAGGAVEKNSNNPNTSPEKAKEIAEEIAEELKKEGHVPKSISFSEKENGKLTATIKIEDGKELTIGLSAGGS [r8_485_JUSTAS]	< -1 kcal/mol	-0.467 ± 0.17 kcal/mol	-0.343 ± 0.16 kcal/mol
SAGGSAGLRVRLADGSELSVSPIPDKLRVVVTLPNGARIPIDVEDGELVEIVRDPAVPADFYIEEISAGGSA [r15_709_JUSTAS]	1.06 ± 0.1 kcal/mol	1.25 ± 0.043 kcal/mol	0.419 ± 0.14 kcal/mol
SAGGSAGGSAGMPLTVLGTEEIGDSTTVTTKDPTSDELYRKTYTNGAVSSTEIVPASELGSAGGSAGGSAGG [r11_19_JUSTAS]	0.217 ± 0.072 kcal/mol	0.282 ± 0.07 kcal/mol	0.0214 ± 0.053 kcal/mol
SAGGSAGGSKEPIRVDEFEWRKNKDGMDMVQVTFPNNGKDIHLPPEHLDNLEPGDEIPLDDLISAGGSAGGS [r20_3_TrROS]	-0.138 ± 0.2 kcal/mol	0.192 ± 0.17 kcal/mol	-0.677 ± 0.12 kcal/mol
SAGGSAGGSAILVPSPETAKKIMDELRKKTGAKVKMKPIGTGADGKEYYRIEVVPPDKPLDSAGGSAGGSAG [r3_59_TrMRF]	0.0705 ± 0.14 kcal/mol	-0.118 ± 0.14 kcal/mol	0.029 ± 0.084 kcal/mol
SAGATPTTLSFTDPEGKKIANVTVTVLPGGRQEASITNSDSNESYTAEYDPATGTWTLTFPDGTTLTVGSAG [r5_809_JUSTAS]	1.58 ± 0.059 kcal/mol	1.75 ± 0.032 kcal/mol	1.15 ± 0.039 kcal/mol
SAGGNMWMVRVKIDDGKTFMITSPEDIEEYLKKKLGPNYKIKEVEWHRMPPPNGPPMPMHEFEIEVPSAGGS [r16_408_TrROS]	1.76 ± 0.16 kcal/mol	2.02 ± 0.1 kcal/mol	1.28 ± 0.062 kcal/mol
SAGGHTIWIPFDSPEQAKELANEIARELNDHGLKVKVKVHPDDGWIKVKVDMRNNDKEKKIKIWFPFPSAGG [r13_641_TrROS]	1.78 ± 0.36 kcal/mol	2.44 ± 0.18 kcal/mol	0.844 ± 0.1 kcal/mol
SAGGMKIEVRPLPGDGFVVRLPGDVVALIDPSTGEAVAFFPDGSVARLTITRDPDRPEFTITIEPVGSAGGS [r8_186_TrMRF]	1.83 ± 0.069 kcal/mol	1.89 ± 0.032 kcal/mol	1.77 ± 0.059 kcal/mol
SAGGSAGGSAGVVEPTVVSRAPDGTLTVVLNLPDGSTRTVTDPTNVTIGDRPINALTNASSAGGSAGGSAGG [r11_1017_JUSTAS]	0.222 ± 0.14 kcal/mol	0.508 ± 0.042 kcal/mol	-0.956 ± 0.45 kcal/mol
SAGPPVLALFTGSPEDVQELLDRLPPDFEVEVGRLPDLYVARFPPDVPPGTVLLPGADGRPAVVEVVEASAG [r5_123_TrMRF]	1.14 ± 0.12 kcal/mol	1.68 ± 0.037 kcal/mol	0.526 ± 0.041 kcal/mol
SPQNLVRIAEIKVELKLDGKKYIITIEVYRPPDSDEVIVRVKVIDPSSDKSSPELEKIAKELEKKIEEELKS [r1_229_JUSTAS]	3.54 ± 0.18 kcal/mol	4.09 ± 0.1 kcal/mol	2.53 ± 0.19 kcal/mol
SAGGSAGGSAGFKVPPGWKIVNTYRSPESGYPTAILRDPGDNKPLIFDFDNGKIMPAKDISAGGSAGGSAGG [r11_268_TrROS]	-0.178 ± 0.55 kcal/mol	-0.535 ± 0.69 kcal/mol	0.291 ± 0.11 kcal/mol
SAGGSAGGMKITVEEDPATNRLTITIEVDGHTVTIVYDKDNPNKITVTVSPNMTKDEILKALKSSAGGSAGG [r6_195_TrROS_Hall]	2.17 ± 0.095 kcal/mol	2.43 ± 0.034 kcal/mol	1.67 ± 0.052 kcal/mol
SAGGSAGGSPGKPKTIPVEMVFFNPEDGYFFEMRSEIYVPPDGNLQIDISIELYPVPPNAPLISAGGSAGGS [r12_116_TrROS]	1.84 ± 0.18 kcal/mol	1.46 ± 0.039 kcal/mol	2.33 ± 0.2 kcal/mol
SAGGSAGGSWITPEWIEEIARYLARELGIDDVKIEVERRPDGYVTVEIRNPANGRKVEITVPWSAGGSAGGS [r12_1000_TrROS]	3.16 ± 0.19 kcal/mol	3.06 ± 0.1 kcal/mol	3.38 ± 0.14 kcal/mol
SAGGSMTISLDETIDVPEDVGVTFTFADDTVATAYFDPSEGKVRVVVYDPNKPGTLLGEFTLPVLPSAGGSA [r2_266_TrMRF]	1.29 ± 0.11 kcal/mol	1.41 ± 0.07 kcal/mol	0.976 ± 0.017 kcal/mol
SAGGSAGGSIKPGEEVTINFLVPPGNIPEFANELMKQDGIKDIEVKYQPFPNWYMVDITIRVKSAGGSAGGS [r12_993_TrROS]	0.52 ± 0.096 kcal/mol	-0.0266 ± 0.14 kcal/mol	0.863 ± 0.029 kcal/mol
SAGEIAEYIAEYLAQEPGFQDVEVNIKITDIEPPPNGYMYHKIDIHVRVRNPDDGKPREVNFDITFPMPSAG [r5_176_TrROS]	1.7 ± 0.17 kcal/mol	1.83 ± 0.068 kcal/mol	1.1 ± 0.084 kcal/mol
SSLEIPPEVLAEIKKAALEGDDEKVKELLKELGFTKVEIKYEKLDGKVKLTIKVEHPEGPATITFSDELLSA [r9_783_JUSTAS]	4.23 ± 0.28 kcal/mol	4.15 ± 0.15 kcal/mol	3.36 ± 0.18 kcal/mol

Sequence	folding stability dG unfold [1]	folding stability dG unfold [2]	folding stability dG unfold [3]
SAGGSAGGSAGGSNPVDIVEILSYDPEKNTYTFLVKLPDGSTKTITVPGLSVEEIKKELSAGGSAGGSAGGS [r4_357_JUSTAS]	2.86 ± 0.085 kcal/mol	3.276 ± 0.029 kcal/mol	1.57 ± 0.083 kcal/mol
SAGGSAGGMNPTVTPVEVDVGDKPLTVFLFGDGTALVLFPDGGLAGAPVGTPDDRPVNLAIIGPSAGGSAGG [r6_239_TrMRF]	0.927 ± 0.073 kcal/mol	0.955 ± 0.053 kcal/mol	0.887 ± 0.037 kcal/mol
SAGGSAGGSAETFTLPGGYTITVEPTEGGVKVTITHPDGSKGEVELGPTEPLVVDPDGATILASAGGSAGGS [r12_281_TrMRF]	1.66 ± 0.1 kcal/mol	1.66 ± 0.093 kcal/mol	1.49 ± 0.079 kcal/mol
SAGPGAELVAEFEVELGDRGARIRIYRAPDFLIIRVDYPDGTVPVFRIDPRTGRIVEVRTFRVRPDLPLSAG [r14_676_TrMRF]	2.28 ± 0.11 kcal/mol	1.91 ± 0.098 kcal/mol	2.56 ± 0.045 kcal/mol
SAGGSAGGSKRKIKVDDVEPPPNGFMRVTLEVDDGKPLVPINIPPGQTPSEVKDQVKDLVEELSAGGSAGGS [r12_798_TrROS]	3.85 ± 0.49 kcal/mol	3.74 ± 0.41 kcal/mol	3.86 ± 0.31 kcal/mol
SAGGSAKPVMVRIKFPNMPPEKLQDAFQEYGMQPQNMDPNKGEMIIMIPWEAAEEIQDKNGFKIEISAGGSA [r15_731_TrROS]	0.323 ± 0.24 kcal/mol	0.8 ± 0.17 kcal/mol	-0.489 ± 0.16 kcal/mol
SAGGSAMVLVRIKLKHPEREEVIEVPAGELLEILEHPELNEHWEIVEIEAREVPPEFVEPEELEEESAGGSA [r15_460_TrMRF]	0.888 ± 0.13 kcal/mol	0.896 ± 0.18 kcal/mol	0.85 ± 0.087 kcal/mol
SAGGSAGGSAGGGVAFSSDTTETRIDTTDDDTIVITTTTYAPNPSSTTTTVTTVPPDVPLSAGGSAGGSAGG [r7_128_JUSTAS]	0.75 ± 0.14 kcal/mol	0.0059 ± 0.23 kcal/mol	1.24 ± 0.044 kcal/mol
SAGGSAGGSAGGGSSMITLERESEPGETFEFNFPGVSEVTVTEVIPGDGKVTVKVEVTSPSAGGSAGGSAGG [r7_292_JUSTAS]	0.537 ± 0.11 kcal/mol	0.0882 ± 0.09 kcal/mol	0.782 ± 0.059 kcal/mol
SAPPRTFIIPIERNPDGNVRLNIRMPGMEIEYEFPPGKDAEDALDKLSPHPGFNVELTEVDPNWIKITFSAG [r14_404_TrROS]	1.28 ± 0.48 kcal/mol	1.75 ± 0.35 kcal/mol	1.3 ± 0.23 kcal/mol
SAGGSAGGSAGGGLRKITFETPLSDFEELVKALGLNVVSAEVEPGAGGLAKVTLLVEEGSAGGSAGGSAGGS [r10_999_TrMRF]	1.55 ± 0.041 kcal/mol	1.843 ± 0.016 kcal/mol	1.04 ± 0.013 kcal/mol
SAGKSKPILVEITFPNGEKAKVLAVEFPNTVYVFAVVTSKDGSKYLVEAIIDVSPTKIKIFTKSYPLESAGG [r19_385_TrMRF]	3.64 ± 0.081 kcal/mol	4.1 ± 0.043 kcal/mol	2.56 ± 0.1 kcal/mol
SAGMELELELEFRLEDGLEVRIRVKVRFDPETGELVIEEVRIEVRPLPPPPPLVLTDEELEALGLEPEESAG [r5_393_TrROS_Hall]	3.6 ± 0.16 kcal/mol	3.32 ± 0.13 kcal/mol	3.6 ± 0.23 kcal/mol
SAGGSAETLVITLPPELEGLSEEELLALLKALLPPGAEITEIRVERLPDGSLRVTVTVRVPPPEEPSAGGSA [r15_451_TrROS_Hall]	2.65 ± 0.15 kcal/mol	2.18 ± 0.061 kcal/mol	3.33 ± 0.24 kcal/mol
SAGGPTIRLLVLPNKAEEVAEAIKKEFGAEVKILRVEPYPLPGPDGKVLKPVYLVEIEVKVKDPRLPLSAGG [r13_943_TrMRF]	1.29 ± 0.17 kcal/mol	1.3 ± 0.14 kcal/mol	1.17 ± 0.051 kcal/mol
SAGGSAGGSAGGPNNKPKPKQVTFDIEIEDIEIDPEHGLISIEIRFPDGGKEITARIPISAGGSAGGSAGGS [r10_427_TrROS]	0.276 ± 0.16 kcal/mol	0.27 ± 0.11 kcal/mol	0.14 ± 0.059 kcal/mol
EEWYIIQIKIEYWGPNGKEREIDIMVLIPPEQMTPDQLKQVKEIAREIAENLQENGYNIEINVEIIPLDDMS [r1_221_TrROS]	> 6 kcal/mol	3.9 ± 0.23 kcal/mol	3.07 ± 0.26 kcal/mol
SAGPWMPYYVKVKFPDEEKLEKLVDEIQDESGFNMQVKKNPENGTRTVRVNMPPNIMEALKKHGFEIVSAGG [r19_306_TrROS]	0.337 ± 0.34 kcal/mol	-0.208 ± 0.46 kcal/mol	0.415 ± 0.11 kcal/mol
SAGGSAGGGSLSKPKKYELVATFTFPGTVEEAKEFLEKLLPEDWKVEIEETPDFLKIKLYKRLDSAGGSAGG [r6_952_TrMRF]	4.06 ± 0.063 kcal/mol	4.07 ± 0.049 kcal/mol	4.07 ± 0.13 kcal/mol
SAGGSAGGPKEYYRVTVYVRNKDGEWEKVAEIEVPGMTEEELKELLAKLGLPPGAEVEIKIEKVSAGGSAGG [r6_88_TrROS_Hall]	5.01 ± 0.21 kcal/mol	4.92 ± 0.15 kcal/mol	5.02 ± 0.49 kcal/mol
SAGGSAEVRVVAEPLPDDYLLVLVEFDSPEVLPEALEAIPGVVEVRAYRFLEEGRPRYRVLALVPASAGGSA [r15_344_TrMRF]	1.8 ± 0.06 kcal/mol	2.02 ± 0.059 kcal/mol	1.4 ± 0.024 kcal/mol

Reference: the supplement of paper PMC12764529
